Results: patent publication US20150196651A1 (published 2015)
Square brackets hold non-standard residues; d marks the D form. Ends that are not written are not given here. * marks the point of attachment. Phe(F5) = N[C@@H](Cc1c(F)c(F)c(F)c(F)c1F)C(=O)O; Palmitoyl = CCCCCCCCCCCCCCCC(=O)*; Nle = CCCC[C@H](N)C(=O)O; Sar = CNCC(=O)O; NOMe = CON*

T1: human PrRP receptor GPR10 (human, UniProt P49683 1-370)
T1 construct: whole, on cells; also called GPR10 human receptor transfected in CHO cells; human GPR10 receptor
T1 sequence (looked up): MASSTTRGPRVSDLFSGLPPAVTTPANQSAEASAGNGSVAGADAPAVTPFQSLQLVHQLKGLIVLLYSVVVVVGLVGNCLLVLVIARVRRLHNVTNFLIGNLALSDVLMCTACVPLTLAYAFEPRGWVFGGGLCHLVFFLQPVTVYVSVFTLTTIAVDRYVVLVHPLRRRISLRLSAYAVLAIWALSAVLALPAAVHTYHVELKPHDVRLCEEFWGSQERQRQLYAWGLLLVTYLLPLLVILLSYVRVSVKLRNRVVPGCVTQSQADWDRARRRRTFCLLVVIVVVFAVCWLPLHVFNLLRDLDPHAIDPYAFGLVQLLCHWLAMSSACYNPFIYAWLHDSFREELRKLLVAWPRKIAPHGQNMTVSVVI

T2: rat PrRP receptor in RC-4B/C cells (rat, UniProt Q64121 1-370)
T2 construct: whole, on cells; endogenous receptor of RC-4B/C cells (ATCC); also called rat receptor; GPR10 receptor expressed in rat hypophyseal cells
T2 sequence (looked up): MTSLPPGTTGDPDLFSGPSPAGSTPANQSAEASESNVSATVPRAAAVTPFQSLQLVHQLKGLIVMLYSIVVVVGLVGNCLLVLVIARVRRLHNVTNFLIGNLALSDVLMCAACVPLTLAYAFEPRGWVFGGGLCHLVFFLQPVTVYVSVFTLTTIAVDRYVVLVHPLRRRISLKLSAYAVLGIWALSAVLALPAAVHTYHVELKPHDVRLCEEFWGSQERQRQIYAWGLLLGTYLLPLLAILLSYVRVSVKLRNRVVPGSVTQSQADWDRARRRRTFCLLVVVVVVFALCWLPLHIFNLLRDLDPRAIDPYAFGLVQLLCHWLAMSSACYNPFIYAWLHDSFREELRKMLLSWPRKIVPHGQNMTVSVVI


Experiments:
[1] = molecular target: T1, human PrRP receptor GPR10; test: competition with 125I-human PrRP31, CHO cells with human GPR10
Procedure: CHO cells transfected with human PrRP receptor GPR10 (Perkin Elmer, USA) were grown on 24-well plates coated with polyethyleneimine. […] The following agents were used for the experiment: binding buffer (25 mmol.1⁻¹ Tris, pH 7.4; 118 mmol.1⁻¹ NaCl, 10 mmol.1⁻¹ MgCl₂, 1 mmol.1⁻¹ CaCl₂, 5.5 mmol.1⁻¹ glucose, 0.5 mg/ml BSA), unlabeled analogs of PrRP (i.e. the analog being tested) at a final concentration between 10⁻¹¹ to 10⁻⁴ mol.1⁻¹, and radiolabeled human ¹²⁵1-PrRP31 at a final concentration of 5×10⁻¹¹ mol.1⁻¹.
(§1) Plates were incubated for 60 minutes at room temperature. After incubation, the cells were solubilized in 0.1 mol/l solution of NaOH, and the radioactivity bound to the cells was counted using a γ-counter. The experiments were performed in duplicate, and repeated at least three times.

[2] = molecular target: T2, rat PrRP receptor in RC-4B/C cells; test: competition with 125I-rat PrRP31, RC-4B/C cells
Procedure: The rat pituitary cell line RC-4B/C (ATCC, Manassas, USA) was grown on 24-well plates which had their bottom coated with polyethyleneimine. The cells were grown to the optimal density of 300-450 thousand cells per well.
as §1

% of PrRP31 [1]	Ki [1]	% of PrRP31 [2]	Ki [2]	Binder
203%	1.92 nM	385%	1.28 nM	SRAHQHS[Nle]ETRTPDINPAWYTGRGIRPVGRF-NH2 [analog no. 3]
248%	1.57 nM	1120%	0.44 nM	Palmitoyl-SRAHQHS[Nle]ETRTPDINPAWYTGRGIRPVGRY-NH2 (SMILES CCCCCCCCCCCCCCCC(=O)N[C@@H](CO)C(=O)N[C@@H](CCCNC(=N)N)C(=O)N[C@@H](C)C(=O)N[C@@H](Cc1c[nH]cn1)C(=O)N[C@@H](CCC(N)=O)C(=O)N[C@@H](Cc1c[nH]cn1)C(=O)N[C@@H](CO)C(=O)N[C@@H](CCCC)C(=O)N[C@@H](CCC(=O)O)C(=O)N[C@H](C(=O)N[C@@H](CCCNC(=N)N)C(=O)N[C@H](C(=O)N1CCC[C@H]1C(=O)N[C@@H](CC(=O)O)C(=O)N[C@H](C(=O)N[C@@H](CC(N)=O)C(=O)N1CCC[C@H]1C(=O)N[C@@H](C)C(=O)N[C@@H](Cc1c[nH]c2ccccc12)C(=O)N[C@@H](Cc1ccc(O)cc1)C(=O)N[C@H](C(=O)NCC(=O)N[C@@H](CCCNC(=N)N)C(=O)NCC(=O)N[C@H](C(=O)N[C@@H](CCCNC(=N)N)C(=O)N1CCC[C@H]1C(=O)N[C@H](C(=O)NCC(=O)N[C@@H](CCCNC(=N)N)C(=O)N[C@@H](Cc1ccc(O)cc1)C(N)=O)C(C)C)[C@@H](C)CC)[C@@H](C)O)[C@@H](C)CC)[C@@H](C)O)[C@@H](C)O) [analog no. 24]
193%	2.02 nM	152%	3.25 nM	SRAHQHS[Nle]ETRTPDINPAWYTGRGIRPVGRY-NH2 (N-terminus assumed; SMILES CCCC[C@H](NC(=O)[C@H](CO)NC(=O)[C@H](Cc1c[nH]cn1)NC(=O)[C@H](CCC(N)=O)NC(=O)[C@H](Cc1c[nH]cn1)NC(=O)[C@H](C)NC(=O)[C@H](CCCNC(=N)N)NC(=O)[C@@H](N)CO)C(=O)N[C@@H](CCC(=O)O)C(=O)N[C@H](C(=O)N[C@@H](CCCNC(=N)N)C(=O)N[C@H](C(=O)N1CCC[C@H]1C(=O)N[C@@H](CC(=O)O)C(=O)N[C@H](C(=O)N[C@@H](CC(N)=O)C(=O)N1CCC[C@H]1C(=O)N[C@@H](C)C(=O)N[C@@H](Cc1c[nH]c2ccccc12)C(=O)N[C@@H](Cc1ccc(O)cc1)C(=O)N[C@H](C(=O)NCC(=O)N[C@@H](CCCNC(=N)N)C(=O)NCC(=O)N[C@H](C(=O)N[C@@H](CCCNC(=N)N)C(=O)N1CCC[C@H]1C(=O)N[C@H](C(=O)NCC(=O)N[C@@H](CCCNC(=N)N)C(=O)N[C@@H](Cc1ccc(O)cc1)C(N)=O)C(C)C)[C@@H](C)CC)[C@@H](C)O)[C@@H](C)CC)[C@@H](C)O)[C@@H](C)O) [analog no. 23]
45%	8.59 nM	51%	9.69 nM	SRAHQHS[Nle]ETRTPDINPAWYTGRGIRPVGR[Phe(F5)]-NH2 [analog no. 21]
203%	1.92 nM	966%	0.51 nM	Palmitoyl-SRAHQHS[Nle]ETRTPDINPAWYTGRGIRPVGR[Phe(F5)]-NH2 [analog no. 22]
100%	3.89 nM	100%	4.93 nM	SRAHQHSMETRTPDINPAWYTGRGIRPVGRF-NH2 (synthetic peptide) [Rat PrRP31]
86%	4.51 nM	62%	7.94 nM	TPDINPAWYTGR[Sar]IRPVGRF-NH2 (N-terminus assumed; SMILES CC[C@H](C)[C@H](NC(=O)CN(C)C(=O)[C@H](CCCNC(=N)N)NC(=O)CNC(=O)[C@@H](NC(=O)[C@H](Cc1ccc(O)cc1)NC(=O)[C@H](Cc1c[nH]c2ccccc12)NC(=O)[C@H](C)NC(=O)[C@@H]1CCCN1C(=O)[C@H](CC(N)=O)NC(=O)[C@@H](NC(=O)[C@H](CC(=O)O)NC(=O)[C@@H]1CCCN1C(=O)[C@@H](N)[C@@H](C)O)[C@@H](C)CC)[C@@H](C)O)C(=O)N[C@@H](CCCNC(=N)N)C(=O)N1CCC[C@H]1C(=O)N[C@H](C(=O)NCC(=O)N[C@@H](CCCNC(=N)N)C(=O)N[C@@H](Cc1ccccc1)C(N)=O)C(C)C) [analog no. 27]
0.06%	6290 nM	0.09%	5200 nM	[dF][dR]GVPRIGRGTYWAPNIDPT-NH2 (N-terminus assumed; SMILES CC[C@H](C)[C@H](NC(=O)[C@H](CCCNC(=N)N)NC(=O)[C@@H]1CCCN1C(=O)[C@@H](NC(=O)CNC(=O)[C@@H](CCCNC(=N)N)NC(=O)[C@H](N)Cc1ccccc1)C(C)C)C(=O)NCC(=O)N[C@@H](CCCNC(=N)N)C(=O)NCC(=O)N[C@H](C(=O)N[C@@H](Cc1ccc(O)cc1)C(=O)N[C@@H](Cc1c[nH]c2ccccc12)C(=O)N[C@@H](C)C(=O)N1CCC[C@H]1C(=O)N[C@@H](CC(N)=O)C(=O)N[C@H](C(=O)N[C@@H](CC(=O)O)C(=O)N1CCC[C@H]1C(=O)N[C@H](C(N)=O)[C@@H](C)O)[C@@H](C)CC)[C@@H](C)O, scrambled peptide; also called 25 scram) [analog no. 25]
61%	6.37 nM	–	–	SRTHRHSMEIK(Palmitoyl)TPDINPAWYASRGIRPVGRF-NH2 [analog no. 48]
54%	7.24 nM	–	–	SRTHRHSMEIRTPDINPK(Palmitoyl)WYASRGIRPVGRF-NH2 (N-terminus assumed; SMILES CCCCCCCCCCCCCCCC(=O)NCCCC[C@H](NC(=O)[C@@H]1CCCN1C(=O)[C@H](CC(N)=O)NC(=O)[C@@H](NC(=O)[C@H](CC(=O)O)NC(=O)[C@@H]1CCCN1C(=O)[C@@H](NC(=O)[C@H](CCCNC(=N)N)NC(=O)[C@@H](NC(=O)[C@H](CCC(=O)O)NC(=O)[C@H](CCSC)NC(=O)[C@H](CO)NC(=O)[C@H](Cc1c[nH]cn1)NC(=O)[C@H](CCCNC(=N)N)NC(=O)[C@H](Cc1c[nH]cn1)NC(=O)[C@@H](NC(=O)[C@H](CCCNC(=N)N)NC(=O)[C@@H](N)CO)[C@@H](C)O)[C@@H](C)CC)[C@@H](C)O)[C@@H](C)CC)C(=O)N[C@@H](Cc1c[nH]c2ccccc12)C(=O)N[C@@H](Cc1ccc(O)cc1)C(=O)N[C@@H](C)C(=O)N[C@@H](CO)C(=O)N[C@@H](CCCNC(=N)N)C(=O)NCC(=O)N[C@H](C(=O)N[C@@H](CCCNC(=N)N)C(=O)N1CCC[C@H]1C(=O)N[C@H](C(=O)NCC(=O)N[C@@H](CCCNC(=N)N)C(=O)N[C@@H](Cc1ccccc1)C(N)=O)C(C)C)[C@@H](C)CC) [analog no. 51]
92%	–	–	–	Palmitoyl-SRTHRHSMEIRTPDINPAWYASRGIRPVGRF-NOMe (SMILES CCCCCCCCCCCCCCCC(=O)N[C@@H](CO)C(=O)N[C@@H](CCCNC(=N)N)C(=O)N[C@H](C(=O)N[C@@H](Cc1c[nH]cn1)C(=O)N[C@@H](CCCNC(=N)N)C(=O)N[C@@H](Cc1c[nH]cn1)C(=O)N[C@@H](CO)C(=O)N[C@@H](CCSC)C(=O)N[C@@H](CCC(=O)O)C(=O)N[C@H](C(=O)N[C@@H](CCCNC(=N)N)C(=O)N[C@H](C(=O)N1CCC[C@H]1C(=O)N[C@@H](CC(=O)O)C(=O)N[C@H](C(=O)N[C@@H](CC(N)=O)C(=O)N1CCC[C@H]1C(=O)N[C@@H](C)C(=O)N[C@@H](Cc1c[nH]c2ccccc12)C(=O)N[C@@H](Cc1ccc(O)cc1)C(=O)N[C@@H](C)C(=O)N[C@@H](CO)C(=O)N[C@@H](CCCNC(=N)N)C(=O)NCC(=O)N[C@H](C(=O)N[C@@H](CCCNC(=N)N)C(=O)N1CCC[C@H]1C(=O)N[C@H](C(=O)NCC(=O)N[C@@H](CCCNC(=N)N)C(=O)N[C@@H](Cc1ccccc1)C(=O)NOC)C(C)C)[C@@H](C)CC)[C@@H](C)CC)[C@@H](C)O)[C@@H](C)CC)[C@@H](C)O) [analog no. 45]
